In this experiment the target is T1, human B-cell activating factor receptor (BAFF-R) polypeptide (human, UniProt Q96RJ3 1-184).
T1 sequence: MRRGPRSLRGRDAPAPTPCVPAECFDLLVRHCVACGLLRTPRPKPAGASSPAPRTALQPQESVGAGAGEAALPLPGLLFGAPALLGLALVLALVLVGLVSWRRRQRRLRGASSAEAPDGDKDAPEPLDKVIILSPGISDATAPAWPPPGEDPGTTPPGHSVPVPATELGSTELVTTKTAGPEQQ
The experiment in a line: flow cytometry on BAFF-R expressing 293FT cells vs 293FT cells, R-PE goat anti-mouse IgG detection. On the procedure: The lead clone was identified and advanced to purification. […] Following two washes in FACS (PBS with 2% bovine serum albumin), cells were incubated with R-PE conjugated goat anti-mouse IgG for 30 minutes at 4° C. Cells were then washed as before and resuspended in 400 μL FACS for analysis on an Attune flow cytometer (Thermo Fisher). […] Anti-BAFF-R monoclonal antibody development was monitored by R-phycoerythrin conjugated goat anti-mouse IgG (BD Bioscience, San Jose, California).

Experimental findings from patent US20260226185A1 (MAYO FOUNDATION FOR MEDICAL EDUCATION AND RESEARCH, published 2026) are described below.

B1: anti-BAFF-R monoclonal antibody C21 (Clone #1) (antibody, V domains shown)
VH: DVQLVESGGGLVQPGGSRKLSCAASGFTFSSFGMHWVRQAPEKGLEWVAYINSGSSTINYADTVKGRFTISRDNPKNTLFLQMTSLRSEDTAMYYCTIYYYAMDYWGQGTSVTVSS
VL: DIVMSQSPSSLTVSVGEKVSMSCKSSQTLLYSGNQKNYLAWYQQKPGQSPKLLIYWASTRESGVPDRFAGSGSGTDFTLTISSVKAEDLAVYYCQQYYIYPPWTFGGGTKLEIK
notes: Mouse hybridoma antibody, tested as crude supernatant and as purified mAb and detected with R-PE goat anti-mouse IgG; the mouse constant regions and the isotype are not; also called hybridoma clone 21; mAb C21
On to B1, for which the binding result is given as “binds”.
